From article PMC9365917, “Modulation of osteogenic differentiation by Escherichia coli-derived recombinant bone morphogenetic protein-2” (AMB Express, 2022)

T1: BMP receptor type 2 (UniProt Q13873 27-150)
T1 construct: BMP receptor type 2 (BMPR2); No catalogue number is printed; also called BMPR2; source: bought: Thermo Fisher Scientific Co
T1 sequence (looked up): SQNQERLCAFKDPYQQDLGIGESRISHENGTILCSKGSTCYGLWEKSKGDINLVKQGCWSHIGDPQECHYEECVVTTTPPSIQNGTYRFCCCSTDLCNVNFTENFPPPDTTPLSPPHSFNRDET

B1: Chinese hamster ovary cell-derived recombinant human bone morphogenetic protein-2 (ligand, UniProt P12643 283-396, looked up)
chain: QAKHKQRKRLKSSCKRHPLYVDFSDVGWNDWIVAPPGYHAFYCHGECPFPLADHLNSTNHAIVQTLVNSVNSKIPKACCVPTELSAISMLYLDENEKVVLKNYQDMVVEGCGCR
modifications: N-glycan (position not given)
notes: Bone morphogenetic protein 2 (BMP-2), human, CHO cell-derived, glycosylated; also called C-rhBMP-2; CHO cell-derived rhBMP-2; source: CHO cell-derived; bought: National Institute for Biological Standards and Control
B2: Escherichia coli-derived recombinant human bone morphogenetic protein-2 (ligand, UniProt P12643 283-396, looked up)
chain: B1 chain
notes: Bone morphogenetic protein 2 (BMP-2), human; no glycans; Not glycosylated (made in E. coli); an added N-terminal methionine is not spoken of; also called E-rhBMP-2; E. coli-derived rhBMP-2; source: E. coli-derived; provided by Daewoong Pharmaceutical Co., Ltd
B3: BMP receptor type 1B (receptor, UniProt O00238 14-126, looked up)
chain: KKEDGESTAPTPRPKVLRCKCHHHCPEDSVNNICSTDGYCFTMIEEDDSGLPVVTSGCLGLEGSDFQCRDTPIPHQRRSIECCTERNECNKDLHPTLPPLKNRDFVDGPIHHR
notes: BMP receptor type 1B (BMPR1B); No catalogue number is printed; also called BMPR1B; source: bought: Thermo Fisher Scientific Co

Columns and labels:
Test in all cases: SPR; Biacore T200; rhBMP-2 (ligand) immobilised by EDC/NHS coupling, target level 500 RU, in 10 mM sodium acetate pH 6.0; receptors as analytes, 10-2000 nM, 30 µL/min, 120 s association and 120 s dissociation; 1:1 binding model
Details in all cases: both partners purified
BMP receptor type 2 = molecular target: T1, BMP receptor type 2
[1] = molecular target: B1
[2] = molecular target: B2

Kd (BMP receptor type 2) [nM] | Kd [1] [nM] | kon [1] [M⁻¹ s⁻¹] | Kd [2] [nM] | kon [2] [M⁻¹ s⁻¹] | Binder
141 | – | – | – | – | B1
140 | – | – | – | – | B2
– | 74.3 | 3470 | 194 | 1960 | B3
